Source: the Human Domainome abundance scans (Beltran et al. 2025)
± gives the uncertainty stated by the source.

B1: SWI/SNF-related matrix-associated actin-dependent regulator of chromatin subfamily B member 1, residues 181 to 248; numbered along this chain, Q12824 (parent)
chain: SQPEVLVPIRLDMEIDGQKLRDAFTWNMNEKLMTPEMFSEILCDDLDLNPLTFVPAIASAIRQQIESY

Variants of: B1
Test: abundance fitness (aPCA) (normalised: wild type 0, dead -1); higher = more abundant; growth selection in yeast, the domain comes from the species named
Conditions: Homo sapiens

Variant	abundance fitness
D45R	0.193 ± 0.15
D45Q	-0.284 ± 0.48
R62W	-0.75 ± 0.18
R62K	-0.043 ± 0.047
R62C	-0.629 ± 0.15
R21C	0.096 ± 0.066
R21V	0.115 ± 0.04
R21T	0.009 ± 0.075
R21H	0.164 ± 0.076
R21K	0.011 ± 0.13
R21N	0.098 ± 0.072
S67T	-0.101 ± 0.071
S67V	-0.098 ± 0.058
S67N	0.082 ± 0.063
S67R	0.039 ± 0.035
S67E	-0.011 ± 0.074
S67G	-0.012 ± 0.039
S67K	-0.2 ± 0.14
T52G	-0.634 ± 0.14
T52L	-0.163 ± 0.14
T52D	-0.168 ± 0.31
T52F	-0.412 ± 0.26
D16Q	-0.168 ± 0.062
D16F	-0.928 ± 0.31

Variant	abundance fitness
D16H	-0.247 ± 0.057
D16G	-0.027 ± 0.04
D16K	-0.498 ± 0.081
D16I	-0.861 ± 0.22
L51A	0.041 ± 0.088
L51V	0.042 ± 0.11
I65R	-0.543 ± 0.14
I65L	-0.069 ± 0.12
I65C	0.036 ± 0.24
I65G	-1.05 ± 0.23
I65E	-0.994 ± 0.41
F53L	-0.813 ± 0.34
M28V	-0.086 ± 0.14
M28L	0.087 ± 0.16
S39R	-0.797 ± 0.36
P3I	-0.245 ± 0.35
P3K	0.289 ± 0.09
P3H	-0.097 ± 0.15
P3L	0.003 ± 0.064
P3R	0.161 ± 0.038
D47N	-0.107 ± 0.069
D47P	-0.799 ± 0.16
D47T	-0.37 ± 0.059
D47S	-0.101 ± 0.048

Variant	abundance fitness
D47W	-0.507 ± 0.12
D47G	0.053 ± 0.038
R10M	-0.273 ± 0.28
R10S	-0.444 ± 0.18
R10Y	0.138 ± 0.29
R10N	-0.03 ± 0.31
R10E	0.065 ± 0.13
R10P	-0.386 ± 0.27
R10T	0.135 ± 0.055
Q18G	-1.01 ± 0.27
Q18V	0.107 ± 0.083
Q18S	-0.425 ± 0.099
M13Q	-0.717 ± 0.34
M13L	-0.089 ± 0.22
M13G	-0.718 ± 0.25
M13W	-0.606 ± 0.41
M13I	-0.149 ± 0.29
D22S	-0.21 ± 0.25
D22V	-0.037 ± 0.16
D22L	0.001 ± 0.12
D22R	0.284 ± 0.15
D22T	0.28 ± 0.077
D22Q	0.052 ± 0.24
D22N	0.005 ± 0.25

Variant	abundance fitness
D22G	-0.418 ± 0.28
I15M	-0.667 ± 0.24
I15V	-0.516 ± 0.088
I15F	-0.282 ± 0.19
I15K	-0.982 ± 0.47
I15A	-0.917 ± 0.23
I15Y	0.116 ± 0.15
I15R	-0.722 ± 0.12
I15L	0.01 ± 0.12
I15H	-0.625 ± 0.28
A56C	-0.384 ± 0.066
A56W	-0.628 ± 0.086
A56G	-0.523 ± 0.049
A56N	-0.654 ± 0.19
A56T	-0.566 ± 0.11
Y68H	-0.093 ± 0.092
Y68D	-0.521 ± 0.12
Y68Q	-0.185 ± 0.086
Y68N	-0.384 ± 0.22
Y68F	-0.183 ± 0.18
Y68W	0.165 ± 0.073
Y68S	-0.427 ± 0.069
I61G	-0.854 ± 0.15
I61A	-0.763 ± 0.1

Variant	abundance fitness
I61M	-0.461 ± 0.089
I61L	-0.725 ± 0.26
V54M	-0.335 ± 0.28
V54I	-0.241 ± 0.077
V54G	0.144 ± 0.14
V54F	-0.739 ± 0.32
E66V	-0.142 ± 0.099
E66T	-0.169 ± 0.073
E66G	-0.316 ± 0.075
E66N	-0.227 ± 0.11
E66Y	-0.09 ± 0.068
E66Q	-0.432 ± 0.18
E66M	-0.215 ± 0.12
E66H	-0.45 ± 0.3
F38R	0.11 ± 0.14
F38Y	-0.509 ± 0.49
F38M	-0.637 ± 0.48
Q2P	-0.079 ± 0.41
N49M	-0.846 ± 0.13
N49W	-0.783 ± 0.13
N49L	-0.924 ± 0.079
N49P	-0.097 ± 0.068
N49C	-0.356 ± 0.075
N49E	-0.292 ± 0.053

Variant	abundance fitness
N49S	-0.498 ± 0.058
E14G	-0.819 ± 0.16
E14R	-0.733 ± 0.14
E14M	-0.065 ± 0.11
E14P	-0.937 ± 0.22
E14K	-0.334 ± 0.45
E14H	-0.202 ± 0.18
P8E	-0.197 ± 0.089
P8M	-0.355 ± 0.068
P8T	-0.177 ± 0.048
P8C	-0.736 ± 0.13
P8R	-0.352 ± 0.037
G17A	-0.867 ± 0.13
G17K	-0.365 ± 0.099
G17M	-1.07 ± 0.27
G17H	-0.66 ± 0.23
G17D	-0.745 ± 0.18
T34C	-0.831 ± 0.23
L46C	-0.231 ± 0.2
L46N	-0.271 ± 0.17
L46A	-0.125 ± 0.051
L46T	-0.954 ± 0.24
L46Y	-0.038 ± 0.099
L46W	0.017 ± 0.069

Variant	abundance fitness
L46K	0.211 ± 0.075
L46G	-0.37 ± 0.12
L46M	0.05 ± 0.21
Q63P	-0.758 ± 0.2
Q63A	-0.057 ± 0.043
Q63C	-0.129 ± 0.066
Q63W	-0.467 ± 0.078
Q63Y	0.105 ± 0.2
S1R	-0.307 ± 0.09
S1V	-0.048 ± 0.094
S1L	-0.021 ± 0.049
S1E	0.194 ± 0.081
S1I	0.238 ± 0.3
S1A	-0.151 ± 0.074
S1Y	0.088 ± 0.11
S1C	-0.095 ± 0.067
N29S	-0.136 ± 0.28
N29D	-0.212 ± 0.24
N29L	-0.939 ± 0.25
N29R	-0.273 ± 0.23
N29K	-0.286 ± 0.096
N29F	-0.736 ± 0.28
V7T	-0.77 ± 0.19
